# B1: TPR t1 (parent)
# chain: GACCAAUCUGCCCUCAGAGCUCGAGAACAUCUUCGGAUGCAGAGGAGGCAGGCUUCGGUGGCGCGAUAGCGCCAACGUCCUCAACCUCCAAUGCAUCCCACCACAUGAUGAUGCCUGAAGAGCCUUGGUUUUUUG
# Variants of: B1
# Assay: polymerase ribozyme fitness, log enrichment relative to wild type (log ratio); higher = more active; in vitro selection for triplet polymerase activity
# In short: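 Mutant libraries of both subunits of a heterodimeric triplet polymerase ribozyme were PCR-built, transcribed, and selected once in triplicate, with frozen incubation at −7 °C and capture of gel-excised extended constructs on streptavidin beads before RT-PCR. Illumina sequencing of input and output libraries was filtered to genotypes with ≥10 input reads and ≥1 read per output. Fitness is the logarithm of genotype enrichment over wild-type enrichment, using inverse-variance-weighted replicate averages. The logarithm is base 2.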
row,Variant,polymerase ribozyme fitness (log ratio)
1,G48U U92A,-3.38
2,A46U G110U G120C G122A,-5.9
3,G47A G71U C123A,-0.967
4,G47U C53U G120U,-1.25
5,G47U G69U,-0.915
6,G48A G63U,-0.443
7,A46U C64U A90U U96A U106A U131A,-3.76
8,C49A C53A U116C,-1.16
9,G48U C99U,-3.34
10,G47U C53A U129G,-2.44
11,A46U G48U C76A U78C C82U,-5.9
12,A46U C49U C72A A121C,0.996
13,G48A G60U C104A,-1.82
14,G48U C82U,-1.32
15,G48U G110U,-2.84
16,C49A A90C,-1.35
17,C49A A90U,-0.956
18,G48U A50G G58C G117U G122A,-4.46
19,G47U C53U C79A,-4.4
20,G47A G51A,-4.37
21,G47U G48U U59A C79U,-3.11

row,Variant,polymerase ribozyme fitness (log ratio)
1,G47C G77C C98U G113C U130C,-6.15
2,G47A G60U G93C C101A,-4.1
3,A46U C114U,-2.76
4,G48C C56U C101A U112C G135C,-0.346
5,C49A A50C,-0.838
6,G48A G63C C82G G113U U132A,-3.71
7,G48C C72G,-0.77
8,A46U C70A C85U,-3.76
9,G47U C72U C94A,-2.85
10,A46U G57C A84U C114U,-3.16
11,G47A G51C G77C C80U U87C C124G U131G,-1.89
12,G48A G69A,-4.63
13,G48U C79A U112A,-2.84
14,G47A C76G A90G,-0.228
15,G47U U78G,-1.6
16,G48A C73U A119G,0.718
17,G47U A95C U96A,-4.33
18,G48A G71C A105C,-4.88
19,G47C G58A,-1.77
20,G48C C72G C104A G120C G128A,-4.3
21,G48C G77A U130G,-2.05

row,Variant,polymerase ribozyme fitness (log ratio)
1,G47C U54G G58C G69U,1.13
2,G47A C102G,-5.8
3,G47A C102A,-2.65
4,G47C C72G,-2.9
5,G47A C64U G117U,-4.27
6,G47U A119U,-1.82
7,G47A C53U,-1.23
8,A46U C102U,-4.01
9,G48A C62A C73U,-3.55
10,A46U C124A,0.552
11,A46U C70G,-4.75
12,G47U G51U C73U,-6.37
13,G48C U55G C62A C79U A84C C85G G93U C124A,-0.918
14,G47U C53A C114A,-2.64
15,G48U G63U C72U C86A A91C,-5.91
16,G47A A50U,-1.57
17,G48U U55G G61U,-0.0419
18,G47U C73G C82U,-2.22
19,G47A C124U,0.0616
20,G47U G117U,-2.78
21,A46U U109A,-6.04

row,Variant,polymerase ribozyme fitness (log ratio)
1,G47U G58C C82U C86U,-1.04
2,G48U G58U G60U C82G,0.276
3,G47A G135U,-2.25
4,A46U G71C U78A C86A,-1.63
5,G47A A90C U112A,-2.17
6,G47U C114A,-2.77
7,G47U C114U,-3.33
8,A46U U78C G113A,-2.45
9,G48C G128A,-3.43
10,G47U C98U,-4.36
11,A46U C104U,-0.991
12,G47U U87A,-2.55
13,G47C C64A C104U,-7.34
14,G48A C53A U59G G61C,-0.194
15,A46U C53U G69C U87C,-2.13
16,A46U C70G C85U C104G,-7.09
17,C49A A66C U87A,-1.04
18,C49A C73A C88U A91U C124U,-0.744
19,G48A G63A C101A,-2.45
20,G47C C72U C94U,-2.45
21,G48A U106C,0.21

# From the RNAGym collection of RNA variant scans (doi:10.1073/pnas.2313332121)
